We go through ten molecules from patent US20240262922A1 (Merck KGaA, published 2024).

Where two headings read alike, the source gives them in different places.

One may read the Kd as the concentration at which binding is half-saturated.

Assay [1] deals with T1, recombinant human OX40L protein (R&D Systems, cat. #1054-OX) (human, UniProt P23510 51-183).
T1 sequence: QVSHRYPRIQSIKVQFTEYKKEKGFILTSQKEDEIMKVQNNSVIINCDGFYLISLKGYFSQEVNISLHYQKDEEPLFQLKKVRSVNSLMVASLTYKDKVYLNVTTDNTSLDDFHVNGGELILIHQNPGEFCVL
Put plainly: cell-based or functional assay.

Assay [2] concerns the target T2, AVI-GST-His6-hOX40L (human, UniProt P23510 51-183).
T2 sequence: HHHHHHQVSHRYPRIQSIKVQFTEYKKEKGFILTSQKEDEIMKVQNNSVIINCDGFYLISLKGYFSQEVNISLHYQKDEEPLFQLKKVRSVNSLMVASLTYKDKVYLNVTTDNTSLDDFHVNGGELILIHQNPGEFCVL
Description: cell-based or functional assay.

Assay [3] deals with T1, recombinant human OX40L protein (R&D …). Description: SPR steady state, Biacore T200; OX40L immobilised on CM5, FcFab in solution. On the procedure:
(§1) Recombinant OX40L proteins (human OX40L protein, R&D systems, cat. #1054-OX; cynomolgus monkey OX40L, Novoprotein cat. #CP72) were immobilized onto Biacore CM5 sensor chips and anti-OX40L antibodies were bound to this surface at a range of concentrations. The response at steady state was measured with a Biacore T200 instrument (GE Healthcare) and plotted against the concentration of antibody and fit to a 1:1 binding model. The steady state KD was determined as the antibody concentration at a response equal to half the maximal response (Rₘₐₓ).
As with the IgG clones, binding affinity to human OX40L was determined for all twelve FcFabs using steady state affinity assay as described in section 1.1.7 of Example 1. […]
A general note: SPR reads the build-up and loss of mass on a sensor chip optically.

Assay [4] shares this target. Put plainly: SPR steady state, Biacore T200; OX40L immobilised on CM5, antibody in solution. How it is done:
as §1
Steady state affinity assay was performed as described in section 1.1.7 of Example 1.

A further assay concerns the target T3, mouse OX40L (mouse, UniProt P43488 51-198, limits assumed).
T3 sequence: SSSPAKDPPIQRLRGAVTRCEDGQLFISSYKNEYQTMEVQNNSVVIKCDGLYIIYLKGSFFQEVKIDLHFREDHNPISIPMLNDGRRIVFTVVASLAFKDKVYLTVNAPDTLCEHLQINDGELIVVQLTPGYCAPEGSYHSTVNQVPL
Description: flow cytometry on CHO-S cells / ELISA on recombinant protein (sentence does not say which).

In assay [5] the target is T4, recombinant cynomolgus monkey OX40L (Novoprotein cat. #CP72) (cynomolgus monkey, UniProt P23510 51-183 (human entry), limits assumed).
T4 construct: Bought protein; also called cynomolgus OX40L
T4 chain: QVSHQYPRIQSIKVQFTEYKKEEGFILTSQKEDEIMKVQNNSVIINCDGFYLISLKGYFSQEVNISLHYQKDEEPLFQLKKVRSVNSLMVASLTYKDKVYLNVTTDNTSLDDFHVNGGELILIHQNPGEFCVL
Put plainly: flow cytometry on CHO-S-OX40L cells / ELISA on recombinant OX40L (sentence does not say which). (In general: Flow cytometry measures light scatter and fluorescence of single cells or particles in a stream.)

The target in assay [6] is T1, recombinant human OX40L protein (R&D …). Put plainly: cell-based or functional assay. This is another data set of the same source.
Assay [7] deals with T2, AVI-GST-His6-hOX40L. Description: cell-based or functional assay. This is another data set of the same source.

B1: 85F12 (FcFab) (antibody)
chain 1: EPKSSDKTHTCPPCPAPPVAGPSVFLFPPKPKDTLMISRTPEVTCVVVDVSHEDPEVKFNWYVDGVEVHNAKTKPREEQYNSTYRVVSVLTVLHQDWLNGKEYKCAVSNKALPSSIEKTISKAKGQPREPQVYTLPPSREEMTKNQVSLTCLVKGFYPSDIAVEWESNGQPENNYKTTPPVLDSDGSFFLYSKLTVDKSRWQQGNVFSCSVMHEALHNHYTQKSLSLSPGAGGGGSGGGGSGGGGSQVQLQQSGPGLVKPSQTLSLTCAISGDSVSSNSAVWNWIRQSPSRGLEWLGRTDYRSKWNNDYAVSVKSRITINPDTSKNQFSLQLNSVTPEDTAVYYCARGDAGMASFDYWGQGTLVTVSSASTKGPSVFPLAPSSKSTSGGTAALGCLVKDYFPEPVTVSWNSGALTSGVHTFPAVLQSSGLYSLSSVVTVPSSSLGTQTYICNVNHKPSNTKVDKRVEPKSC
chain 2: SSELTQPPSVSVSPGQTASITCSGDKLGDKYACWYQQKAGQSPVVVIYQDRKRPSGIPERFSGSNSGNTATLTISGTQAMDEADYYCQTWDRRTAVFGGGTKLTVLGQPKAAPSVTLFPPSSEELQANKATLVCLISDFYPGAVTVAWKADSSPVKAGVETTTPSKQSNNKYAASSYLSLTPEQWKSHKSYSCQVTHEGSTVEKTVAPTECS
Turning to B1, the “Primary T cell activation assay IC50” value in assay [1] is > 161 nM. In the assay with AVI-GST-His6-hOX40L [2], the “OX40L neutralization/OX40-HEK Reporter IC50” value was > 161 nM. Besides, in assay [3], the Kd stood at 34.1 nM.

B2: 85F12 (IgG) (antibody)
heavy: not shown
light: SSELTQPPSVSVSPGQTASITCSGDKLGDKYACWYQQKAGQSPVVVIYQDRKRPSGIPERFSGSNSGNTATLTISGTQAMDEADYYCQTWDRRTAVFGGGTKLTVLGQPKAAPSVTLFPPSSEELQANKATLVCLISDFYPGAVTVAWKADSSPVKAGVETTTPSKQSNNKYAASSYLSLTPEQWKSHKSYSCQVTHEGSTVEKTVAPTECS
For the molecule B2, in assay [4], the Kd stood at 75.6 nM. The binding result with mouse OX40L was “no binding”; in assay [5], “binds”.

B3: 84E11 (IgG) (antibody)
heavy: not shown
light: SSELTQDPAVSVALGQTVRITCQGDSLRNYFANWYQQKPGQAPVLVIYGKNNRPSGIPDRFSGSSSGNTASLTITGAQAEDEADYYCNSRDSSGYHVVFGGGTKLTVLGQPKAAPSVTLFPPSSEELQANKATLVCLISDFYPGAVTVAWKADSSPVKAGVETTTPSKQSNNKYAASSYLSLTPEQWKSHKSYSCQVTHEGSTVEKTVAPTECS
With B3, the “Primary T cell activation assay IC50” value in assay [6] was found to be 8.8 nM. Also, the “OX40L neutralization/OX40-HEK Reporter IC50” value in the assay with AVI-GST-His6-hOX40L [7] was determined as 17.7 nM. Also, in assay [4], the Kd came out at 39.5 nM. Also, the results for the binding result (in the assay with mouse OX40L; in assay [5]) were “no binding” and “binds”, respectively.

B4: 98C01 (IgG) (antibody)
heavy: not shown
light: SYELTQPPSVSVALGQTARITCGGNNIENKNVHWYQQKPGQAPVLVIYRDSNRPSGIPERFSGSNSGNTATLSINRAQAGDEADYYCQVWDSNTVVFGGGTKLTVLGQPKAAPSVTLFPPSSEELQANKATLVCLISDFYPGAVTVAWKADSSPVKAGVETTTPSKQSNNKYAASSYLSLTPEQWKSHKSYSCQVTHEGSTVEKTVAPTECS
For B4, in assay [6], the “Primary T cell activation assay IC50” value stood at 12.9 nM. The “OX40L neutralization/OX40-HEK Reporter IC50” value with AVI-GST-His6-hOX40L [7] is 3.6 nM. Further, the dissociation constant Kd in assay [4] is 17.7 nM. For the same molecule, the values for the binding result (with mouse OX40L; in assay [5]) were “no binding” and “binds”, respectively.

B5: 85F10 (FcFab) (antibody)
chain 1: EPKSSDKTHTCPPCPAPPVAGPSVFLFPPKPKDTLMISRTPEVTCVVVDVSHEDPEVKFNWYVDGVEVHNAKTKPREEQYNSTYRVVSVLTVLHQDWLNGKEYKCAVSNKALPSSIEKTISKAKGQPREPQVYTLPPSREEMTKNQVSLTCLVKGFYPSDIAVEWESNGQPENNYKTTPPVLDSDGSFFLYSKLTVDKSRWQQGNVFSCSVMHEALHNHYTQKSLSLSPGAGGGGSGGGGSGGGGSEVQLLESGAGLLKPSETLSLTCAVYGGSFSDYYWSWIRQPPGKGLEWIGEINHSGSTNYNPSLKSRVTISVDTSKNQFSLKLSSVTAADTAVYYCARKRGANFFDDWGQGTLVTVSSASTKGPSVFPLAPSSKSTSGGTAALGCLVKDYFPEPVTVSWNSGALTSGVHTFPAVLQSSGLYSLSSVVTVPSSSLGTQTYICNVNHKPSNTKVDKRVEPKSC
chain 2: SYELTQPLSVSVALGQTARITCGGNNIENKNVHWYQQKPGQAPVLVIKRDSNRPSGIPERLSGSNSGNTATLTISRAQAGDEADYYCQVWDSSTVVFGGGTKLTVLGQPKAAPSVTLFPPSSEELQANKATLVCLISDFYPGAVTVAWKADSSPVKAGVETTTPSKQSNNKYAASSYLSLTPEQWKSHKSYSCQVTHEGSTVEKTVAPTECS
For B5, in assay [1], the “Primary T cell activation assay IC50” value was found to be 6.3 nM. Besides, the “OX40L neutralization/OX40-HEK Reporter IC50” value with AVI-GST-His6-hOX40L [2] was > 161 nM. The Kd in assay [3] turned out to be 50.1 nM.

B6: 68F03 (IgG) (antibody)
heavy: not shown
light: SFELTQPLSVSVALGQTARITCGGINIENKNVHYYQQKPGQAPVLVIYRDTNRPSGIPERFSGSNSGNTATLTISRAQAGDEADYYCQVWDSNTVIFGGGTKVTVLGQPKAAPSVTLFPPSSEELQANKATLVCLISDFYPGAVTVAWKADSSPVKAGVETTTPSKQSNNKYAASSYLSLTPEQWKSHKSYSCQVTHEGSTVEKTVAPTECS
In the case of B6, the “Primary T cell activation assay IC50” value in assay [6] turned out to be 18.8 nM. In addition, in the assay with AVI-GST-His6-hOX40L [7], the “OX40L neutralization/OX40-HEK Reporter IC50” value is 5.7 nM. Also, the Kd in assay [4] amounted to 25.8 nM.

B7: 85F10 (IgG) (antibody)
heavy: not shown
light: SYELTQPLSVSVALGQTARITCGGNNIENKNVHWYQQKPGQAPVLVIKRDSNRPSGIPERLSGSNSGNTATLTISRAQAGDEADYYCQVWDSSTVVFGGGTKLTVLGQPKAAPSVTLFPPSSEELQANKATLVCLISDFYPGAVTVAWKADSSPVKAGVETTTPSKQSNNKYAASSYLSLTPEQWKSHKSYSCQVTHEGSTVEKTVAPTECS
Regarding B7, the “OX40L neutralization/OX40-HEK Reporter IC50” value in the assay with AVI-GST-His6-hOX40L [7] was 54.6 nM. In addition, the Kd in assay [4] came out at 28.2 nM. Besides, the results for the binding result (with mouse OX40L; in assay [5]) were “no binding” and “binds”, respectively.

B8: 98E10 (IgG) (antibody)
heavy: not shown
light: SYELTQPLSVSVALGQTARITCGGNNIENKNVHWYQQMPGQAPVLVIYRDSNRPSGIPERFSGSNSGNTATLTINRAQAGDEADYYCQVWDSNTVVFGGGTKVTVLGQPKAAPSVTLFPPSSEELQANKATLVCLISDFYPGAVTVAWKADSSPVKAGVETTTPSKQSNNKYAASSYLSLTPEQWKSHKSYSCQVTHEGSTVEKTVAPTECS
B8: the “Primary T cell activation assay IC50” value in assay [6] was determined as 8.8 nM. In the assay with AVI-GST-His6-hOX40L [7], the “OX40L neutralization/OX40-HEK Reporter IC50” value stood at 5.4 nM. Further, the dissociation constant (Kd) in assay [4] was found to be 32.8 nM. The binding result in the assay with mouse OX40L is “no binding”; in assay [5], “binds”.

B9: 30F02 (IgG) (antibody)
heavy: not shown
light: SYVLTQPLSVSVALGQTARITCGGNNIGDKNVHWYQQKPGQAPVLVISRDSNRPSGIPERFSGSNSGNTATLTISRAQAGDESDYYCQVWDSSTVVFGGGTKVTVLGQPKAAPSVTLFPPSSEELQANKATLVCLISDFYPGAVTVAWKADSSPVKAGVETTTPSKQSNNKYAASSYLSLTPEQWKSHKSYSCQVTHEGSTVEKTVAPTECS
As to B9, in assay [6], the “Primary T cell activation assay IC50” value amounted to 12.4 nM. Also, the “OX40L neutralization/OX40-HEK Reporter IC50” value in the assay with AVI-GST-His6-hOX40L [7] came to 72.7 nM. Moreover, in assay [4], the Kd amounted to 53.9 nM. For the same molecule, the results for the binding result (in the assay with mouse OX40L; in assay [5]) were “no binding” and “binds”, respectively.

B10: 89B09 (IgG) (antibody)
heavy: not shown
light: SSELTQDPAVSVALGQTVRITCQGDSVRRFFAHWYQQKPGQAPILVISGKDTRPSGIPDRFSGSISGNTASLTITGAQAEDEADYYCNSRDSSGYLVLFGGGTKLTVLGQPKAAPSVTLFPPSSEELQANKATLVCLISDFYPGAVTVAWKADSSPVKAGVETTTPSKQSNNKYAASSYLSLTPEQWKSHKSYSCQVTHEGSTVEKTVAPTECS
With B10, the “Primary T cell activation assay IC50” value in assay [6] was 10.7 nM. Further, the “OX40L neutralization/OX40-HEK Reporter IC50” value in the assay with AVI-GST-His6-hOX40L [7] was 4.4 nM. The Kd in assay [4] stood at 31.6 nM. The binding result with mouse OX40L is listed as “no binding”; in assay [5], “binds”.
